The text below walks through data of patent US20040014151A1 (published 2004).

This data set deals with the molecule itself. The data set is described as follows: SEC-HPLC of IMAC-purified protein from cpcE or cpcF mutant. On the technique in general: SEC sorts molecules by how far they enter the pores of the column.

Experimental: Size Exclusion Chromatography-High Performance Liquid Chromatography—Although IMAC-purified and dialyzed samples (see above) could be used with no obvious effect on the results, proteins to be analyzed by SEC-HPLC were generally dialyzed again in 50 mM Na—PO₄ pH 7.0, 50 mM NaCl, 0.5 mM DTT. […] A mobile phase of 50 mM Na—PO₄ pH 7.0 was flowed at 0.8 ml min⁻¹ through Bio-Sil 250 (Bio-Rad Laboratories, Hercules, Calif.) guard column (80×7.8 mm) and column (300×7.8 mm) maintained at 25° C. For analytical separations, 50 to 200 μg of phycocyanin was loaded [based on absorbance at the peak near 621 nm and using a molar extinction coefficient of 290,000 M⁻¹ cm⁻¹ per monomer (29)]. Molecular size calibration utilized bovine gamma globulin, 158 kDa; chicken ovalbumin, 44 kDa; horse myoglobin, 17 kDa; vitamin B12, 1.35 kDa (Bio-Rad gel filtration standards). The void volume was determined with blue dextran, 2000 kDa (Pharmacia Biotech, Piscataway, N.J.). Preparative separations were performed with loads of 0.5 to 1 mg phycocyanin.

B1: His-tagged C-phycocyanin β subunit, holo-HTβ (other, Anabaena sp. PCC7120, UniProt P07120 1-173, looked up)
chain: MTLDVFTKVVSQADSRGEFLSNEQLDALANVVKEGNKRLDVVNRITSNASAIVTNAARALFEEQPQLIAPGGNAYTNRRMAACLRDMEIILRYVTYAILAGDASVLDDRCLNGLRETYQALGTPGSSVAVGVQKMKDAAVGIANDPNGITKGDCSQLISEVASYFDRAAAAVG
modifications: two phycocyanobilins (PCB); methylated Asn72
notes: Encoded by pBS262, expressed in Anabaena sp; also called An262; not shown: 24-residue N-terminal extension with 6xHis tag and TEV protease site
Regarding B1, the binding result is on record as “binds”.
